In article doi:10.1101/497123 (2018):

Experiments:
Assay in all cases: BLI
[1] = molecular target: T1, full length H7 HA trimer (influenza A virus, subtype H7 (strain …))
[2] = molecular target: T1, full length H7 HA trimer; remark: listed apart in the source
[3] = molecular target: m12
[4] = molecular target: m13
[5] = molecular target: m15
[6] = molecular target: m11
[7] = molecular target: m14
[8] = molecular target: m9

B1: CT149 Fab (Fab, V domains shown)
VH: QVQLVQSGAEVKKPGASVKVSCKTSGYSFSTYGVSWVRQAPGQGPEWVGWISAYTGITDYAQKFQGRVTLTTDATTATAFLDLRSLRPDDTATYFCARDKVQGRVEVGSGGRHDYWGQGTLVIVSS
VL: EVVLTQSPGTLALPPGERATLSCRASHRVGSTYIAWYQQKSGQAPRRLIYGASNRATDIPDRFSGSGSGTDFTLTIRRLEPEDSAVYYCQQFSVSPWTFGQGTRVEIK
In the case of B1, the Kd [1] is reported as 3.7 nM, the koff [2] is reported as 0.0031 s⁻¹ and the Kd [3] is reported as 8.2 nM. For the same binder, the koff [3] was 0.003 s⁻¹, the Kd [4] was 2.7 nM and the koff [4] was 0.0018 s⁻¹. It also gave a Kd [5] of 9.8 nM, a koff [5] of 0.0034 s⁻¹ and a Kd [6] of 9 nM. For the same binder, the koff [6] was 0.0033 s⁻¹, the Kd [7] was 7.2 nM and the koff [7] was 0.0029 s⁻¹. It also gave a Kd [8] of 7 nM and a koff [8] of 0.003 s⁻¹.
